Test results: patent US6551840B2, “Method of screening TGF-β-inhibiting substances” (Chugai Seiyaku Kabushiki Kaisha, priority 1997, dated 2003)

Experiments:
[1] = tested on: human fibroblast-derived HT-1080; experiment: Fibronectin EIA in HT-1080 cells expressing TAK1-DN with or without TGF-β; format: cell-based; conditions: 1 ng/ml TGF-β, 24 hours; for increase of fibronectin in the culture supernatant by TGF-β addition: control HT/NEO about 6.1 fold; for increase of fibronectin in the extracellular matrix extract by TGF-β addition: control HT/NEO about 11.4 fold
Source text: Then, pTAK1DN or pCOS1 that contains no inserted genes as a control vector was linearized by digesting with a restriction enzyme PvuI. These linearized vectors were introduced by electroporation into human fibroblast-derived HT-1080 (ATCC CCL 121), a mouse kidney mesangial cell line SV40MES13 (ATCC CRL 1927), and a mink pulmonary epithelial cell line Mv1Lu (ATCC CCL 64), and cells into which the gene was introduced were selected using G418 (manufactured by GIBCO-BRL).
The human fibroblast-derived HT-1080 cells (HT/DN2 and HT/DN14) into which pTAK1DN had been introduced and the control cells (HT/NEO) into which pCOS1 containing no inserted genes had been introduced were incubated in a low-serum medium (Medium 199 containing 0.2% FBS; manufactured by GIBCO BRL) with or without 1 ng/ml TGF-β (manufactured by King Jozo) for 24 hours. The amount of fibronectin in the culture supernatant or the extracellular matrix extract prepared using 1 M urea solution (1 M urea, 1 mM DTT, 10 mM Tris-HCl, pH 7.4, 10 mM EDTA, Protease inhibitor cocktail (CompleteTM, manufactured by Boehringer-Mannheim)) was determined by the EIA method.
Thus, 100 μl of the culture supernatant or the extracellular matrix extract prepared using 1 M urea solution was added to a 96-well microtiter plate (manufactured by Nunc), and the plate was incubated overnight at 4° C. After washing, it was blocked using a 1% BSA solution (50 mM Tris-HCl, pH 8.0, 1 mM MgCl2, 150 mM NaCl, 0.05% Tween 20, 0.02% sodium azide), and then 10000 fold-diluted rabbit anti-human fibronectin antibody (manufactured by CALBIOCHEM) was added to the above 1% BSA solution, and was further incubated at room temperature for 2 hours.
After washing, alkaline phosphatase-labeled goat anti-rabbit Ig antibody (manufactured by TAGO) was added, and was further incubated at room temperature for one hour. Then the substrate solution (p-nitrophenyl phosphate; manufactured by Sigma) was added and absorbance at […] was measured. As a standard, human fibronectin (manufactured by Cappel) was used.

Mv1Lu cell = experiment: PAI-1 ELISA in culture supernatant of Mv1Lu cells with or without TGF-β1; format: cell-based, mink; conditions: Mv1Lu cells with forced expression; 10 ng/ml TGF-β1, 24 hours; control cells about 16-fold
Source text: Accordingly, TAK1DN was subjected to forced expression in the Mv1Lu cell to investigate the effects of TGF-β stimulation on PAI-1 expression. The TAK1DN expression vector used was the above-mentioned TAK1DN, and the TAK1 polypeptide mutant TAK1-K63W expression vector was constructed by inserting a gene (Yamaguchi K. et al., (1995) Science 270, 2008-2011) encoding the TAK1 polypeptide mutant TAK1-K63W in which the lysine residue at position 63 has been replaced with the tryptophan residue at the EcoRI and NotI restriction enzyme site of pCOS1 to give pTAK1K63W.
The Mv1Lu cells into which pTAK1Dn had been introduced (Mv/DN2), the cells into which pTAK1K63W had been introduced (Mv/KN7), and the control cells into which pCOS1 containing no inserted genes (Mv/NEO) had been introduced were each incubated in a low-serum medium (MEM medium containing 0.2% FBS; manufactured by GIBCO-BRL) with or without 10 ng/ml of TGF-β1 for 24 hours. The amount of PAI-1 in the culture supernatant was determined using the PAI-1 Quantative ELISA (manufactured by CALBIOCHEM).

B1: TAK1-DN: polypeptide of Glu at position 77 to Gln at position 303 of TAK1 (SEQ ID NO: 4), the TAB1 binding site; dominant negative inhibitor (protein)
chain: ELRQLSRVNHPNIVKLYGACLNPVCLVMEYAEGGSLYNVLHGAEPLPYYTAAHAMSWCLQCSQGVAYLHSMQPKALIHRDLKPPNLLLVAGGTVLKICDFGTACDIQTHMTNNKGSAAWMAPEVFEGSNYSEKCDVFSWGIILWEVITRRKPFDEIGGPAFRIMWAVHNGTRPPLIKNLPKPIESLMTRCWSKDPSQRPSMEEIVKIMTHLMRYFPGADEPLQYPCQ
increase of fibronectin in the culture supernatant by TGF-β addition ([1]; HT/DN2 cells): about 2.6 fold
increase of fibronectin in the extracellular matrix extract by TGF-β addition ([1]; HT/DN2 cells): about 3.5 fold
increase of fibronectin in the culture supernatant by TGF-β addition ([1]; HT/DN14 cells): ~3.0 fold
increase of fibronectin in the extracellular matrix extract by TGF-β addition ([1]; HT/DN14 cells): ~3.6 fold
increase in PAI-1 in the culture supernatant by TGF-β1 addition (Mv1Lu cell): about 4.3 fold
